Test results taken from IntAct's records for PubMed 31515488.

B1: Zinc finger protein Aiolos (Homo sapiens), Q9UKT9 (parent)
chain: MEDIQTNAELKSTQEQSVPAESAAVLNDYSLTKSHEMENVDSGEGPANEDEDIGDDSMKVKDEYSERDENVLKSEPMGNAEEPEIPYSYSREYNEYENIKLERHVVSFDSSRPTSGKMNCDVCGLSCISFNVLMVHKRSHTGERPFQCNQCGASFTQKGNLLRHIKLHTGEKPFKCHLCNYACQRRDALTGHLRTHSVEKPYKCEFCGRSYKQRSSLEEHKERCRTFLQSTDPGDTASAEARHIKAEMGSERALVLDRLASNVAKRKSSMPQKFIGEKRHCFDVNYNSSYMYEKESELIQTRMMDQAINNAISYLGAEALRPLVQTPPAPTSEMVPVISSMYPIALTRAEMSNGAPQELEKKSIHLPEKSVPSERGLSPNNSGHDSTDTDSNHEERQNHIYQQNHMVLSRARNGMPLLKEVPRSYELLKPPPICPRDSVKVINKEGEVMDVYRCDHCRVLFLDYVMFTIHMGCHGFRDPFECNMCGYRSHDRYEFSSHIARGEHRALLK
partner: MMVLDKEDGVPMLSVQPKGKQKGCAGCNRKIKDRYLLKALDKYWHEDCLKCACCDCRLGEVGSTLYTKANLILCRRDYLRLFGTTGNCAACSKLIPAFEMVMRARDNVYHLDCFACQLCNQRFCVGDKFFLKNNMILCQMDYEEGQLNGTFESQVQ
B2: Transmembrane protein 79 (Homo sapiens), Q9BSE2 (parent)
chain: MTEQETLALLEVKRSDSPEKSSPQALVPNGRQPEGEGGAESPGAESLRVGSSAGSPTAIEGAEDGLDSTVSEAATLPWGTGPQPSAPFPDPPGWRDIEPEPPESEPLTKLEELPEDDANLLPEKAARAFVPIDLQCIERQPQEDLIVRCEAGEGECRTFMPPRVTHPDPTERKWAEAVVRPPGCSCGGCGSCGDREWLRAVASVGAALILFPCLLYGAYAFLPFDVPRLPTMSSRLIYTLRCGVFATFPIVLGILVYGLSLLCFSALRPFGEPRREVEIHRRYVAQSVQLFILYFFNLAVLSTYLPQDTLKLLPLLTGLFAVSRLIYWLTFAVGRSFRGFGYGLTFLPLLSMLMWNLYYMFVVEPERMLTATESRLDYPDHARSASDYRPRPWG
partner: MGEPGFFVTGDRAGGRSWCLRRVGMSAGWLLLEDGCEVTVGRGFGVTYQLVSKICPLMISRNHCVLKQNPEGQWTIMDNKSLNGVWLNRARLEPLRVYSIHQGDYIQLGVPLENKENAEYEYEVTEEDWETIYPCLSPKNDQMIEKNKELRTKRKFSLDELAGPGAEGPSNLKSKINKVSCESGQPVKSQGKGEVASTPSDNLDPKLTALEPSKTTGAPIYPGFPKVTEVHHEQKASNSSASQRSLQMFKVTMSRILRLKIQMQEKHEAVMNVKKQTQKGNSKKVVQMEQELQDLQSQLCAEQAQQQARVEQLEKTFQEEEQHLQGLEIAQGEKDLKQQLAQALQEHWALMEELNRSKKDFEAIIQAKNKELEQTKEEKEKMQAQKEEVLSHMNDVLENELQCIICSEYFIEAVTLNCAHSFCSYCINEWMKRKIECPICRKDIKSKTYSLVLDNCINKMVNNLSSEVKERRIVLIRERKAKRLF
B3: Zinc finger protein RFP (Homo sapiens), P14373 (parent)
chain: MASGSVAECLQQETTCPVCLQYFAEPMMLDCGHNICCACLARCWGTAETNVSCPQCRETFPQRHMRPNRHLANVTQLVKQLRTERPSGPGGEMGVCEKHREPLKLYCEEDQMPICVVCDRSREHRGHSVLPLEEAVEGFKEQIQNQLDHLKRVKDLKKRRRAQGEQARAELLSLTQMEREKIVWEFEQLYHSLKEHEYRLLARLEELDLAIYNSINGAITQFSCNISHLSSLIAQLEEKQQQPTRELLQDIGDTLSRAERIRIPEPWITPPDLQEKIHIFAQKCLFLTESLKQFTEKMQSDMEKIQELREAQLYSVDVTLDPDTAYPSLILSDNLRQVRYSYLQQDLPDNPERFNLFPCVLGSPCFIAGRHYWEVEVGDKAKWTIGVCEDSVCRKGGVTSAPQNGFWAVSLWYGKEYWALTSPMTALPLRTPLQRVGIFLDYDAGEVSFYNVTERCHTFTFSHATFCGPVRPYFSLSYSGGKSAAPLIICPMSGIDGFSGHVGNHGHSMETSP
partner: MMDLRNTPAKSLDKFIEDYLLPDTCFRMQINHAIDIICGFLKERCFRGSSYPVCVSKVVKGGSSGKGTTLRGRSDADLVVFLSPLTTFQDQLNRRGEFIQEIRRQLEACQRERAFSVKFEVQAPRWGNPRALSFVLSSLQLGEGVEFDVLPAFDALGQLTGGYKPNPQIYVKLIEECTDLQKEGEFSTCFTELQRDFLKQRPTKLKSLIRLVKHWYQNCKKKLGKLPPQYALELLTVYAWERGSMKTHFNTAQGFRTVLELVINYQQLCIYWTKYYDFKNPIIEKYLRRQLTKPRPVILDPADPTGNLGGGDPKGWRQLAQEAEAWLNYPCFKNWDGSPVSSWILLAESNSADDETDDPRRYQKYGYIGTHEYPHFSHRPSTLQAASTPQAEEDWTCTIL
B4: GTP-binding protein GEM (Homo sapiens), P55040 (parent)
chain: MTLNNVTMRQGTVGMQPQQQRWSIPADGRHLMVQKEPHQYSHRNRHSATPEDHCRRSWSSDSTDSVISSESGNTYYRVVLIGEQGVGKSTLANIFAGVHDSMDSDCEVLGEDTYERTLMVDGESATIILLDMWENKGENEWLHDHCMQVGDAYLIVYSITDRASFEKASELRIQLRRARQTEDIPIILVGNKSDLVRCREVSVSEGRACAVVFDCKFIETSAAVQHNVKELFEGIVRQVRLRRDSKEKNERRLAYQKRKESMPRKARRFWGKIVAKNNKNMAFKLKSKSCHDLSVL

Variants of: B1
Settings: with rbtn1_human LMO1, P25800
With A24V the “effect of a mutation on the interaction” value was “with no effect”.
For N119D, the “effect of a mutation on the interaction” value was “with no effect”.

Variants of: B1
Settings: with rbtn1_human LMO1, P25800
Remark: another data set of the same source
With I338M the “effect of a mutation on the interaction” value was “with no effect”.

Variants of: B2
Settings: with rnf8_human RNF8, O76064
V147M was tested, and the “effect of a mutation on the interaction” value was “with no effect”.
For S104T, the “effect of a mutation on the interaction” value was “with no effect”.
D144G was tested, and the “effect of a mutation on the interaction” value was “with no effect”.

Variants of: B3
Settings: with oas1_human OAS1, P00973
For N355S, the “effect of a mutation on the interaction” value was “disrupting interaction strength”.

Variants of: B4
Settings: with ldoc1_human LDOC1, O95751
Chain of ldoc1_human LDOC1, O95751 (O95751 whole entry): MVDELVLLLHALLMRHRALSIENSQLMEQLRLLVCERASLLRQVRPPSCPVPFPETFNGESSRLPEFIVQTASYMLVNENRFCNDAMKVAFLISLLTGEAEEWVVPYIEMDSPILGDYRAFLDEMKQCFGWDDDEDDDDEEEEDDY
In the case of R43G, the “effect of a mutation on the interaction” value is reported as “with no effect”.

Variants of: B4
Settings: with tri23_human TRIM23, P36406
Chain of tri23_human TRIM23, P36406 (P36406 whole entry): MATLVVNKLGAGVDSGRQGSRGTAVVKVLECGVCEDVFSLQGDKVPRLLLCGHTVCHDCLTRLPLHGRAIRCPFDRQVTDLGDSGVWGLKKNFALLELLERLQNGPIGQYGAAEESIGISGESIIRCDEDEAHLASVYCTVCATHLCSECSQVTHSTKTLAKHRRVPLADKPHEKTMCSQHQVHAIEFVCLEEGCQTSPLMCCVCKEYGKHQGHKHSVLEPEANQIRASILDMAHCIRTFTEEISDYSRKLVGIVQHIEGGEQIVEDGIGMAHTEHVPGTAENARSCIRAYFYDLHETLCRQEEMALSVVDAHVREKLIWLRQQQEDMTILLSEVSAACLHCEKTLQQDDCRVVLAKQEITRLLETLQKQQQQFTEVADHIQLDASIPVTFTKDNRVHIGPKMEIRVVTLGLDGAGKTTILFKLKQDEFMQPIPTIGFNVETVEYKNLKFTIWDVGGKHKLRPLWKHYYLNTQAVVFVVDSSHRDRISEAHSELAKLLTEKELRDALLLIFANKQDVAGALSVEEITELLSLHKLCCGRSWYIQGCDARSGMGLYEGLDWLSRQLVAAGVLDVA
R43G was tested, and the “effect of a mutation on the interaction” value was “with no effect”.

Variants of: B4
Settings: with nemo_human IKBKG
For R43G, the “effect of a mutation on the interaction” value was “with no effect”.

Variants of: B4
Settings: with mtus2_human MTUS2, Q5JR59
Chain of mtus2_human MTUS2, Q5JR59 (Q5JR59 whole entry): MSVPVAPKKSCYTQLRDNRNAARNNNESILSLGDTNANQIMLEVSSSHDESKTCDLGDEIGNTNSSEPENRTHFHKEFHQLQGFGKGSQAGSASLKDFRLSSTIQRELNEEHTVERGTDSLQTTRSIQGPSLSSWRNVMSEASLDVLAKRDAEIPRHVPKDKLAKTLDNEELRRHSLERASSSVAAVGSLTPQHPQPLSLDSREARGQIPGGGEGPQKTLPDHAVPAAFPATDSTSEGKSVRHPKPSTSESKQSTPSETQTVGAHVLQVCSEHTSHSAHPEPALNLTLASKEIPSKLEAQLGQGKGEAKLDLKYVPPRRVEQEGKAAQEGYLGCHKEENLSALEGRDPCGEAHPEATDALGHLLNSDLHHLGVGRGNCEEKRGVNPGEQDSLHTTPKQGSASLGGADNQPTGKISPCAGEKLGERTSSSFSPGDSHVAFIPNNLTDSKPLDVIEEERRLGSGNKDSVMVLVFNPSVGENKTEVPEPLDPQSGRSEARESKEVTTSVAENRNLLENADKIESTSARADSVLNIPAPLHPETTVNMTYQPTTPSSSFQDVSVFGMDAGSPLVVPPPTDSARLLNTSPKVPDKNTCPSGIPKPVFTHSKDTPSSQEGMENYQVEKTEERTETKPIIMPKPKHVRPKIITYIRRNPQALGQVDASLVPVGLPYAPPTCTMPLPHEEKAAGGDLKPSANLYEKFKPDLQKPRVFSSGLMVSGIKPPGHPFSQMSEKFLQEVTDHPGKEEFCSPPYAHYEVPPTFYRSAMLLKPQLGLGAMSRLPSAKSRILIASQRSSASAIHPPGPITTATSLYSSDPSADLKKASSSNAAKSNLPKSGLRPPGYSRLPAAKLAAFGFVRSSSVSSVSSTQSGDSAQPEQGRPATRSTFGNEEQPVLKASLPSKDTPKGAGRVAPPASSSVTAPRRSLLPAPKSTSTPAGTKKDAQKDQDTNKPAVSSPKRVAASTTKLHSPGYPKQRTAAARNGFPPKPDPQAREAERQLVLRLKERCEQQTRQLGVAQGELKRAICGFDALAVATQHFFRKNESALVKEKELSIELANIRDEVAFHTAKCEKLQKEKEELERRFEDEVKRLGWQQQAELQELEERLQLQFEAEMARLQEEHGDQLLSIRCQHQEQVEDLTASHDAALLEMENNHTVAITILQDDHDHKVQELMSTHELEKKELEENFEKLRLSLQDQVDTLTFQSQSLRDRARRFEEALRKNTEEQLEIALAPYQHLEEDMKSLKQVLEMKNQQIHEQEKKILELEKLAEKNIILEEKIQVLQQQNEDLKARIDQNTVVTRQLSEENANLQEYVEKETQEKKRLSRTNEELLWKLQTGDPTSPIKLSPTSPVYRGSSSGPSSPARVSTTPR
For R43G, the “effect of a mutation on the interaction” value was “with no effect”.

Variants of: B4
Settings: with pdli7_human PDLIM7, Q9NR12
Chain of pdli7_human PDLIM7, Q9NR12 (Q9NR12 whole entry): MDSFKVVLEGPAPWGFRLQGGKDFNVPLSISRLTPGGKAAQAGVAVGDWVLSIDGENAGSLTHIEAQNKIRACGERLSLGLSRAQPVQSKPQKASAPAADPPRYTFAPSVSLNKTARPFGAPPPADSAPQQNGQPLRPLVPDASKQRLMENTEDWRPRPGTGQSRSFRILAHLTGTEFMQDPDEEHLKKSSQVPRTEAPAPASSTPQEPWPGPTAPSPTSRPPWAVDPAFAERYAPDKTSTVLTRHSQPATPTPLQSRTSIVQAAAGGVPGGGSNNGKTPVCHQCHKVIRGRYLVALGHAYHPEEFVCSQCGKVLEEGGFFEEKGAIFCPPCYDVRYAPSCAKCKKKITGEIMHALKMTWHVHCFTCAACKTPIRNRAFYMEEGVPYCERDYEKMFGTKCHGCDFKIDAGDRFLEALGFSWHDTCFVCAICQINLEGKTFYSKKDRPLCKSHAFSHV
R43G was tested, and the “effect of a mutation on the interaction” value was “with no effect”.
